The values that follow come from the supplement of paper PMC10201428.

For data set [1], the system named is VchCAST RNA-guided transposition machinery (E. coli BL21(DE3) host, lacZ target). Description: relative integration efficiency (T-RL orientation) vs wild-type transposon end (log2 (normalized fold change)); transposon end mutated: right end (5 bp flank + 75 bp right end); higher = more efficient transposition. Put shortly:
(§1)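 Barcoded pools of 1549 left-end or 1849 right-end transposon variants were cloned into a pUC57 mini-transposon donor. Each pool was co-transformed with a T7-driven effector plasmid (CRISPR array, tniQ-cas8-cas7-cas6, tnsA-tnsB-tnsC) into E. coli BL21(DE3) and plated with 0.1 mM IPTG at 37°C for 18 h. Input plasmids and genomic integration junctions were PCR-amplified and Illumina-sequenced, with two biological output replicates and four wild-type barcodes as reference. Relative integration efficiency is output/input barcode abundance fold change, normalised to wild-type barcodes and log-transformed.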

Data set [2] shares this test system. Description: relative integration efficiency (T-LR orientation) vs wild-type transposon end (log2 (normalized fold change)); transposon end mutated: right end (5 bp flank + 75 bp right end); higher = more efficient transposition. Put shortly: as §1

± gives the standard deviation of the averaged measurements.

“ACATTTGTTGATACAACCATAAAATGATAATTAATAATTATTTATAATCAGCAACTCACCCATAAATTGATAATTATCAACAAACGCCCGGTCGCGGTACTCTGATCATAGTCAGACCAACATTGCT”: the “relative integration efficiency (log2)” value in data set [1] is -2.25 ± 0.75; in data set [2], -0.174 ± 0.43.

“ACATTTGTTGATACAACCATAAAATGATAATTAATAATTATTTATAATCAGCAACTCACCCATAAATTGATAATTATCACACCCATAAATTGATATTGCCTCTGATCATAGTCAGACCAACATTGCT”: the “relative integration efficiency (log2)” value in data set [1] is -3.48 ± 0.49; in data set [2], -2.22 ± 1.2.

As to “ACATTTGTTGATACAACCATAAAATGATAATTAATAATTATTTATAATCAGCAACTTAACACCCATAAATTGATAATTATCAACAAACGCCCGGTCGCGGTACTCTGATCATAGTCAGACCAACATT”, the “relative integration efficiency (log2)” value is -3.404 ± 0.015 in data set [1] and -0.0617 ± 0.066 in data set [2].

On to “ACATTTGTTGATACAACCATAAAATGATAATTAATAATTATTTATAATCAGCAACTTAACACCCATAAATTGATAATTATCACACCCATAAATTGATATTGCCTCTGATCATAGTCAGACCAACATT”, for which the “relative integration efficiency (log2)” value is -3.62 ± 0.28 in data set [1] and -0.417 ± 0.9 in data set [2].

Take “ACATTTGTTGATACAACCATAAAATGATAATTAATAATTATTTATAATCAGCAACTTAACCACAAAACACCCATAAATTGATAATTAACAAAACACCCATAAATTGATATTGCCTCTGATCATAGTC”: the “relative integration efficiency (log2)” value in data set [1] was -5.1 ± 0.59; in data set [2], under -10.

On to “ACATTTGTTGATACAACCATAAAATGATAATTAATAATTATTTATAATCAGCAACTTAACCACAAAACACCCATAAATTGATAATTAACAAAAGTGGGTATTTAACTATAACGTGTGAATCGAGTAT”, for which the “relative integration efficiency (log2)” value in data set [1] is -3.472 ± 0.019; in data set [2], -1.88 ± 0.39.

As to “ACATTTGTTGATACAACCATAAAATGATAATTAATAATTATTTATAATCAGCAACTTAACCACAAAACACCCATAAATTGATAATTAACAACACCCATAAATTGATATTGCCTCTGATCATAGTCAG”, the “relative integration efficiency (log2)” value in data set [1] is -4.56 ± 0.76; in data set [2], -1.12 ± 0.49.

In the case of “ACATTTGTTGATACAACCATAAAATGATAATTAATAATTATTTATAATCAGCAACTTAACCACAAAACACCCATAAATTGATAATTATCAACAAACGCCCGGTCGCGGTACTCTGATCATAGTCAGA”, the “relative integration efficiency (log2)” value in data set [1] was -4.43 ± 0.39; in data set [2], -2.48 ± 1.9.

As to “ACATTTGTTGATACAACCATAAAATGATAATTAATAATTATTTATAATCAGCAACTTAACCACAAACACCCATAAATTGATAATTATCAACAAACGCCCGGTCGCGGTACTCTGATCATAGTCAGAC”, the entries for the “relative integration efficiency (log2)” value in data set [1] and in data set [2] were -3.5 ± 0.52 and -0.33 ± 0.047, respectively.

“ACATTTGTTGATACAACCATAAAATGATAATTAATAATTATTTATAATCAGCAACTTAACCACAAACACCCATAAATTGATAATTATCACACCCATAAATTGATATTGCCTCTGATCATAGTCAGAC”: the “relative integration efficiency (log2)” value is -5.71 ± 1.2 in data set [1] and -4.03 ± 0.67 in data set [2].

Consider “ACATTTGTTGATACAACCATAAAATGATAATTAATAATTATTTATAATCAGCAACTTAACCACAACACCCATAAATTGATAATTATCAACAAACGCCCGGTCGCGGTACTCTGATCATAGTCAGACC”, for which the “relative integration efficiency (log2)” value in data set [1] is -3.33 ± 0.27; in data set [2], -0.0981 ± 0.042.

In the case of “ACATTTGTTGATACAACCATAAAATGATAATTAATAATTATTTATAATCAGCAACTTAACCACAACACCCATAAATTGATAATTATCACACCCATAAATTGATATTGCCTCTGATCATAGTCAGACC”, the “relative integration efficiency (log2)” value is -3.94 ± 1.1 in data set [1] and -2.74 ± 0.53 in data set [2].

“ACATTTGTTGATACAACCATAAAATGATAATTAATAATTATTTATAATCAGCAACTTAACCACACACCCATAAATTGATAATTATCAACAAACGCCCGGTCGCGGTACTCTGATCATAGTCAGACCA”: the “relative integration efficiency (log2)” value in data set [1] is -2.65 ± 0.4; in data set [2], 0.76 ± 0.68.

In the case of “ACATTTGTTGATACAACCATAAAATGATAATTAATAATTATTTATAATCAGCAACTTAACCACACACCCATAAATTGATAATTATCACACCCATAAATTGATATTGCCTCTGATCATAGTCAGACCA”, the entries for the “relative integration efficiency (log2)” value in data set [1] and in data set [2] were -3.09 ± 0.16 and -0.603 ± 0.78, respectively.

For the sequence “ACATTTGTTGATACAACCATAAAATGATAATTAATAATTATTTATAATCAGCAACTTAACCACACCCATAAATTGATAATTATCAACAAACGCCCGGTCGCGGTACTCTGATCATAGTCAGACCAAC”, the “relative integration efficiency (log2)” value in data set [1] is -2.81 ± 0.91; in data set [2] it was 1.01 ± 0.042.

As to “ACATTTGTTGATACAACCATAAAATGATAATTAATAATTATTTATAATCAGCAACTTAACCACACCCATAAATTGATAATTATCACACCCATAAATTGATATTGCCTCTGATCATAGTCAGACCAAC”, the “relative integration efficiency (log2)” value is -4.19 ± 0.29 in data set [1] and -0.704 ± 0.18 in data set [2].

On to “ACATTTGTTGATACAACCATAAAATGATAATTAATAATTATTTATAATCAGCAACTTAACCACCACCCATAAATTGATAATTATCAACAAACGCCCGGTCGCGGTACTCTGATCATAGTCAGACCAA”, for which the “relative integration efficiency (log2)” value in data set [1] is -3.21 ± 0.38; in data set [2], 0.423 ± 1.1.

With “ACATTTGTTGATACAACCATAAAATGATAATTAATAATTATTTATAATCAGCAACTTAACCACCACCCATAAATTGATAATTATCACACCCATAAATTGATATTGCCTCTGATCATAGTCAGACCAA”, the “relative integration efficiency (log2)” value in data set [1] was -3.5 ± 0.74; in data set [2], -0.482 ± 0.91.

For “ACATTTGTTGATACAACCATAAAATGATAATTAATAATTATTTATAATCAGCAACTTAACCACCCATAAATTGATAATTATCAACAAACGCCCGGTCGCGGTACTCTGATCATAGTCAGACCAACAT”, the “relative integration efficiency (log2)” value in data set [1] is -3.11 ± 0.29; in data set [2], 0.501 ± 0.39.

Take “ACATTTGTTGATACAACCATAAAATGATAATTAATAATTATTTATAATCAGCAACTTAACCACCCATAAATTGATAATTATCACACCCATAAATTGATATTGCCTCTGATCATAGTCAGACCAACAT”: the “relative integration efficiency (log2)” value is -3.17 ± 0.073 in data set [1] and -1.2 ± 2.8 in data set [2].

On to “ACATTTGTTGATACAACCATAAAATGATAATTAATAATTATTTATAATCAGCAACTTAACCCACCCATAAATTGATAATTATCAACAAACGCCCGGTCGCGGTACTCTGATCATAGTCAGACCAACA”, for which the “relative integration efficiency (log2)” value in data set [1] was -2.76 ± 0.67; in data set [2], 0.743 ± 0.49.

As to “ACATTTGTTGATACAACCATAAAATGATAATTAATAATTATTTATAATCAGCAACTTAACCCACCCATAAATTGATAATTATCACACCCATAAATTGATATTGCCTCTGATCATAGTCAGACCAACA”, the entries for the “relative integration efficiency (log2)” value in data set [1] and in data set [2] were -3.06 ± 0.43 and 0.044 ± 0.09, respectively.

For the sequence “ACATTTGTTGATACAACCATAAAATGATAATTAATAATTATTTATAATCAGCAACTTACACCCATAAATTGATAATTATCAACAAACGCCCGGTCGCGGTACTCTGATCATAGTCAGACCAACATTG”, the “relative integration efficiency (log2)” value in data set [1] is -4.47 ± 1; in data set [2] it was -1.91 ± 0.28.

As to “ACATTTGTTGATACAACCATAAAATGATAATTAATAATTATTTATAATCAGCAACTTACACCCATAAATTGATAATTATCACACCCATAAATTGATATTGCCTCTGATCATAGTCAGACCAACATTG”, the “relative integration efficiency (log2)” value was -5.34 ± 0.86 in data set [1] and -3.43 ± 0.46 in data set [2].

As for “ACATTTGTTGATACAACCATAAAATGATAATTAATAATTATTTATAATCAGCAACTTCACCCATAAATTGATAATTATCAACAAACGCCCGGTCGCGGTACTCTGATCATAGTCAGACCAACATTGC”, the “relative integration efficiency (log2)” value is -2.15 ± 0.52 in data set [1] and 0.707 ± 0.87 in data set [2].

As to “ACATTTGTTGATACAACCATAAAATGATAATTAATAATTATTTATAATCAGCAACTTCACCCATAAATTGATAATTATCACACCCATAAATTGATATTGCCTCTGATCATAGTCAGACCAACATTGC”, the “relative integration efficiency (log2)” value was -3.33 ± 0.32 in data set [1] and -1.32 ± 0.21 in data set [2].

Turning to “ACATTTGTTGATACAACCATAAAATGATAATTAATAATTATTTATAATCAGCACACCCATAAATTGATAATTATCAACAAACGCCCGGTCGCGGTACTCTGATCATAGTCAGACCAACATTGCTACG”, the figures for the “relative integration efficiency (log2)” value in data set [1] and in data set [2] were -2.43 ± 0.16 and 0.238 ± 0.52, respectively.

Turning to “ACATTTGTTGATACAACCATAAAATGATAATTAATAATTATTTATAATCAGCACACCCATAAATTGATAATTATCACACCCATAAATTGATATTGCCTCTGATCATAGTCAGACCAACATTGCTACG”, the “relative integration efficiency (log2)” value in data set [1] is -4.17 ± 0.11; in data set [2], -2.77 ± 0.42.

Turning to “ACATTTGTTGATACAACCATAAAATGATAATTAATAATTATTTATAATCAGCACCCATAAATTGATAATTATCAACAAACGCCCGGTCGCGGTACTCTGATCATAGTCAGACCAACATTGCTACGAC”, the figures for the “relative integration efficiency (log2)” value in data set [1] and in data set [2] were -2.03 ± 0.4 and 0.752 ± 0.5, respectively.

Regarding “ACATTTGTTGATACAACCATAAAATGATAATTAATAATTATTTATAATCAGCACCCATAAATTGATAATTATCACACCCATAAATTGATATTGCCTCTGATCATAGTCAGACCAACATTGCTACGAC”, the entries for the “relative integration efficiency (log2)” value in data set [1] and in data set [2] were -3.29 ± 0.1 and -0.258 ± 0.51, respectively.

As to “ACATTTGTTGATACAACCATAAAATGATAATTAATAATTATTTATAATCAGCCACCCATAAATTGATAATTATCAACAAACGCCCGGTCGCGGTACTCTGATCATAGTCAGACCAACATTGCTACGA”, the entries for the “relative integration efficiency (log2)” value in data set [1] and in data set [2] were -1.83 ± 0.4 and 1.16 ± 0.037, respectively.

As to “ACATTTGTTGATACAACCATAAAATGATAATTAATAATTATTTATAATCAGCCACCCATAAATTGATAATTATCACACCCATAAATTGATATTGCCTCTGATCATAGTCAGACCAACATTGCTACGA”, the “relative integration efficiency (log2)” value in data set [1] is -3.35 ± 0.33; in data set [2], -0.898 ± 1.2.
